Data set [1] has as its system NC(=O)C1=CN([C@@H]2O[C@H](COP(=O)(O)OP(=O)(O)OC[C@H]3O[C@@H](n4cnc5c(N)ncnc54)[C@H](OP(=O)(O)O)[C@@H]3O)[C@@H](O)[C@H]2O)C=CC1. Description: tryptophan fluorescence quenching (equilibrium and stopped-flow); steady-state kinetics (Km). The data set is classed as biochemical, Streptomyces xinghaiensis. The following applies: Trp331 of the C-terminal tail loop contributes to binding of both NADPHs; varied: cofactor.

The target in a further data set is T1, AKRtyl (Streptomyces xinghaiensis, UniProt A0A3R7J519).
T1 construct: gene SFRA_012675; N-terminally His6-tagged AKRtyl, octamer
Description: X-ray crystal structure ([…] Å), equilibrium tryptophan fluorescence quenching and stopped-flow. In kind it is binding.

The target of another data set is T2, AKR_coelicolor (Streptomyces coelicolor, UniProt Q9F2Z5).
T2 construct: gene SCO4352
T2 sequence (Q9F2Z5 1-330): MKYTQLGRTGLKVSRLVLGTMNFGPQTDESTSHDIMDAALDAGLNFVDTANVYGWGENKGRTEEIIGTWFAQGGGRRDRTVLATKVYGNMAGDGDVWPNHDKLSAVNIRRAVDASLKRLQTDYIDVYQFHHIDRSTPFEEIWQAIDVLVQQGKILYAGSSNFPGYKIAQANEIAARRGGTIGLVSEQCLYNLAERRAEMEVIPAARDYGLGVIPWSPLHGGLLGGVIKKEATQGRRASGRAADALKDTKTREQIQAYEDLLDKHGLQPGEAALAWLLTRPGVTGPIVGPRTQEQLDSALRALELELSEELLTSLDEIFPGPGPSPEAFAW
In words: steady-state kinetics, inhibition at high NADPH concentration. In kind it is biochemical.

Data set [2] concerns the molecule itself. In words: crystal structure; sitting-drop vapour diffusion at 20 °C; AKRtyl at 10 mg/ml in 10 mM Tris-HCl pH 7.5, 150 mM NaCl; purified-state, apo, NADP(H), NADP+-tylosin and tylosin forms, all octameric.

For orientation: kcat means the number of substrate molecules converted per active site and unit of time at saturation. Usually kcat/Km stands for the turnover number divided by the Michaelis constant. As a reminder, the Kd is the constant that tells how readily two partners part at equilibrium. High values mean a looser complex, low ones a tighter complex. Broadly, the stoichiometry N is a count of units in the complex or per binding partner.

Turning to “AKRtyl (Streptomyces xinghaiensis; W331A)”, in data set [1], the K0.5 stood at 11.03 µM, the kcat came to 0.18 ± 0.01 s⁻¹ and the kcat/Km is 16300 M⁻¹ s⁻¹.

`NC(=O)C1=CN([C@@H]2O[C@H](COP(=O)(O)OP(=O)(O)OC[C@H]3O[C@@H](n4cnc5c(N)ncnc54)[C@H](OP(=O)(O)O)[C@@H]3O)[C@@H](O)[C@H]2O)C=CC1` [NADPH]: on AKRtyl, the Kd was 450 nM. Besides, on AKR_coelicolor, the “steady-state kinetics, inhibition at high NADPH concentration” value was “inhibition by the cofactor NADPH at high concentrations was also observed for these two AKRs”.

B1: AKRtyl (tylosin reductase, aldo-keto reductase AKR12D1) (enzyme, S. fradiae)
chain: MEYTQLGRIGLKVSRLVLGTMNFGPTTDEAESHAIMDAALDAGINFFDTANVYGWGENKGRTEEILGSWFAQGGDRRDKVVLATKVYGNMGLDGPAWPNHDKLSALNIRRSVDASLKRLGTDHIDLYQFHHVDRDTPWDEIWQAMDVLVRQGKILYVGSSNFAGWNIAQANETAARHGRLGLVSEQCLYNLCERRAEMEVVPAAREYGLGVIAWSPLHGGLLGGAIRKEQEGGNRRAASGRAADALKDPQQREQIQRYEDLLDKHGLEPGEVALAWLLTRPGVTGPIVGPRTADQLASAVRAAELTLTDEVLTALDEIFPGPGPSPEAFAW
notes: AKRtyl, tylosin reductase of the tylosin producer S. fradiae, UniProt A0A3R7J519; protein coding gene cloned into pET28a between NdeI and XhoI; Octamer made of two homotetramers; also called WT; source: E. coli BL21 (DE3), purified (Ni-NTA, size-exclusion chromatography on Superdex 200 increase)
With B1, in data set [2], the “stoichiometry N” value amounted to 8.

The record behind these values is publication PMC10923870, “A three-level regulatory mechanism of the aldo-keto reductase subfamily AKR12D” (Nature Communications, 2024).
